The EC50 is the concentration that produces a half-maximal response.

B1: Humanized HC3 + LC1 (antibody, human IgG2, kappa, V domains shown)
VH: EVQLVQSGAEVKKPGASVKVSCKASGYTFTNYWMHWVRQAPGQGLEWMGYINPSSGYTQYNQKFQGWVTMTADTSISTAYMELSRLRSDDTAVYYCSTYYGDYLFPYWGQGTLVTVSS
VL: DVVMTQSPLSLPVTLGQPASISCRSSQDIVYGNGNTYLEWFQQRPGQSPRLLIYKVSNRFSGVPDRFSGSGSGTDFTLKISRVEAEDVGVYYCFQGSHVPYTFGQGTKLEIKR
notes: Listing: IgG2 heavy chain; also called H6247 + L6245
B2: Humanized HC2 + LC1 (antibody, human IgG2, kappa, V domains shown)
VH: QVQLVQSGAEVKKPGASVKVSCKASGYTFTNYWMHWVRQAPGQGLEWMGYINPSSGYTQYNQKFQGRVTMTADTSTSTVYMELSSLRSEDTAVYYCSTYYGDYLFPYWGQGTLVTVSS
VL: DVVMTQSPLSLPVTLGQPASISCRSSQDIVYGNGNTYLEWFQQRPGQSPRLLIYKVSNRFSGVPDRFSGSGSGTDFTLKISRVEAEDVGVYYCFQGSHVPYTFGQGTKLEIKR
notes: Listing: IgG2 heavy chain; also called H6246 + L6245
B3: Humanized HC1 + LC1 (antibody, human IgG2, kappa, V domains shown)
VH: QVQLVQSGAEVKKPGASVKVSCKASGYTFTNYWMHWVRQAPGQGLEWMGYINPSSGYTQYNQKFQGRVTMTRDTSTSTVYMELSSLRSEDTAVYYCSTYYGDYLFPYWGQGTLVTVSS
VL: DVVMTQSPLSLPVTLGQPASISCRSSQDIVYGNGNTYLEWFQQRPGQSPRLLIYKVSNRFSGVPDRFSGSGSGTDFTLKISRVEAEDVGVYYCFQGSHVPYTFGQGTKLEIKR
notes: also called H6245 + L6245
B4: Chimeric parental antibody (H4965 + L4965) (antibody, IgG1, V domains shown)
VH: EVQLQQSGGERATPGASVKMSCKTSGYTFTNYWMHWVKQRPGQGLEWIGYINPSSGYTQYNQKFKDKATLTADKSSSTAYIQLSSLTSEDSAVYYCSTYYGDYLFPYWGQGTLVTVSA
VL: DVLMTQTPLSLPVSLGDQASISCRSSQDIVYGNGNTYLEWYLQKPGQSPKLLIYKVSNRFSGVPDRFSGSGSGTDFTLKISRVEAEDLGVYYCFQGSHVPYTFGGGTKLEIKR
notes: also called pp 9854; Chimeric Parental HC
B5: Humanized HC2 + LC2 (antibody, human IgG2, kappa, V domains shown)
VH: QVQLVQSGAEVKKPGASVKVSCKASGYTFTNYWMHWVRQAPGQGLEWMGYINPSSGYTQYNQKFQGRVTMTADTSTSTVYMELSSLRSEDTAVYYCSTYYGDYLFPYWGQGTLVTVSS
VL: DVVMTQSPLSLPVTLGQPASISCRSSQDIVYGNGNTYLEWYQQRPGQSPRLLIYKVSNRFSGVPDRFSGSGSGTDFTLKISRVEAEDVGVYYCFQGSHVPYTFGQGTKLEIKR
notes: Listing: IgG2 heavy chain; also called H6246 + L6246
B6: Humanized HC3 + LC2 (antibody, human IgG2, kappa, V domains shown)
VH: EVQLVQSGAEVKKPGASVKVSCKASGYTFTNYWMHWVRQAPGQGLEWMGYINPSSGYTQYNQKFQGWVTMTADTSISTAYMELSRLRSDDTAVYYCSTYYGDYLFPYWGQGTLVTVSS
VL: DVVMTQSPLSLPVTLGQPASISCRSSQDIVYGNGNTYLEWYQQRPGQSPRLLIYKVSNRFSGVPDRFSGSGSGTDFTLKISRVEAEDVGVYYCFQGSHVPYTFGQGTKLEIKR
notes: Listing: IgG2 heavy chain; also called H6247 + L6246
B7: Humanized HC3 + LC3 (antibody, human IgG2, kappa, V domains shown)
VH: EVQLVQSGAEVKKPGASVKVSCKASGYTFTNYWMHWVRQAPGQGLEWMGYINPSSGYTQYNQKFQGWVTMTADTSISTAYMELSRLRSDDTAVYYCSTYYGDYLFPYWGQGTLVTVSS
VL: DIVLTQSPLSLPVTLGQPASISCRSSQDIVYGNGNTYLEWYQQRPGQSPRLLIYKVSNRFSGVPDSFSGSGSGTDFTLTISRVEAEDVGIYYCFQGSHVPYTFGEGTKLEIKR
notes: Listing: IgG2 heavy chain; also called H6247 + L6247
B8: Humanized HC1 + LC2 (antibody, human IgG2, kappa, V domains shown)
VH: QVQLVQSGAEVKKPGASVKVSCKASGYTFTNYWMHWVRQAPGQGLEWMGYINPSSGYTQYNQKFQGRVTMTRDTSTSTVYMELSSLRSEDTAVYYCSTYYGDYLFPYWGQGTLVTVSS
VL: DVVMTQSPLSLPVTLGQPASISCRSSQDIVYGNGNTYLEWYQQRPGQSPRLLIYKVSNRFSGVPDRFSGSGSGTDFTLKISRVEAEDVGVYYCFQGSHVPYTFGQGTKLEIKR
notes: Listing: IgG2 heavy chain; also called H6245 + L6246
B9: Humanized HC1 + LC3 (antibody, human IgG2, kappa, V domains shown)
VH: QVQLVQSGAEVKKPGASVKVSCKASGYTFTNYWMHWVRQAPGQGLEWMGYINPSSGYTQYNQKFQGRVTMTRDTSTSTVYMELSSLRSEDTAVYYCSTYYGDYLFPYWGQGTLVTVSS
VL: DIVLTQSPLSLPVTLGQPASISCRSSQDIVYGNGNTYLEWYQQRPGQSPRLLIYKVSNRFSGVPDSFSGSGSGTDFTLTISRVEAEDVGIYYCFQGSHVPYTFGEGTKLEIKR
notes: Listing: IgG2 heavy chain; also called H6245 + L6247
B10: Humanized HC2 + LC3 (antibody, human IgG2, kappa, V domains shown)
VH: QVQLVQSGAEVKKPGASVKVSCKASGYTFTNYWMHWVRQAPGQGLEWMGYINPSSGYTQYNQKFQGRVTMTADTSTSTVYMELSSLRSEDTAVYYCSTYYGDYLFPYWGQGTLVTVSS
VL: DIVLTQSPLSLPVTLGQPASISCRSSQDIVYGNGNTYLEWYQQRPGQSPRLLIYKVSNRFSGVPDSFSGSGSGTDFTLTISRVEAEDVGIYYCFQGSHVPYTFGEGTKLEIKR
notes: Listing: IgG2 heavy chain; also called H6246 + L6247
B11: TAB-004 antibody-conjugated mesoporous silica nanoparticle (antibody, V domains shown)
VH: EVQLQQSGGERATPGASVKMSCKTSGYTFTNYWMHWVKQRPGQGLEWIGYINPSSGYTQYNQKFKDKATLTADKSSSTAYIQLSSLTSEDSAVYYCSTYYGDYLFPYWGQGTLVTVSA
VL: DVLMTQTPLSLPVSLGDQASISCRSSQDIVYGNGNTYLEWYLQKPGQSPKLLIYKVSNRFSGVPDRFSGSGSGTDFTLKISRVEAEDLGVYYCFQGSHVPYTFGGGTKLEIKR
modifications: antibody coupled by EDC to the carboxylic acid groups of a PEG-2K linker on an FITC-labelled mesoporous silica nanoparticle; site not stated
notes: Many copies of TAB-004 on one particle; also called TAB-004-MSN

The target in one assay is T1, human MUC1 antigen in plate ELISA (KCM lysate) (human, UniProt P15941 24-1255, limits assumed, tumor-associated glycosylation, not specified further). The assay can be described thus: sandwich ELISA: hybridoma antibody coat, KCM lysate 10 µg/mL, test antibody in 5-fold dilutions, HRP goat anti-human IgG. On the technique in general: In an ELISA, binding on a coated surface is turned into a signal by an enzyme label.
T1 sequence (P15941 other isoform, or with tags, fused parts or gaps limits assumed): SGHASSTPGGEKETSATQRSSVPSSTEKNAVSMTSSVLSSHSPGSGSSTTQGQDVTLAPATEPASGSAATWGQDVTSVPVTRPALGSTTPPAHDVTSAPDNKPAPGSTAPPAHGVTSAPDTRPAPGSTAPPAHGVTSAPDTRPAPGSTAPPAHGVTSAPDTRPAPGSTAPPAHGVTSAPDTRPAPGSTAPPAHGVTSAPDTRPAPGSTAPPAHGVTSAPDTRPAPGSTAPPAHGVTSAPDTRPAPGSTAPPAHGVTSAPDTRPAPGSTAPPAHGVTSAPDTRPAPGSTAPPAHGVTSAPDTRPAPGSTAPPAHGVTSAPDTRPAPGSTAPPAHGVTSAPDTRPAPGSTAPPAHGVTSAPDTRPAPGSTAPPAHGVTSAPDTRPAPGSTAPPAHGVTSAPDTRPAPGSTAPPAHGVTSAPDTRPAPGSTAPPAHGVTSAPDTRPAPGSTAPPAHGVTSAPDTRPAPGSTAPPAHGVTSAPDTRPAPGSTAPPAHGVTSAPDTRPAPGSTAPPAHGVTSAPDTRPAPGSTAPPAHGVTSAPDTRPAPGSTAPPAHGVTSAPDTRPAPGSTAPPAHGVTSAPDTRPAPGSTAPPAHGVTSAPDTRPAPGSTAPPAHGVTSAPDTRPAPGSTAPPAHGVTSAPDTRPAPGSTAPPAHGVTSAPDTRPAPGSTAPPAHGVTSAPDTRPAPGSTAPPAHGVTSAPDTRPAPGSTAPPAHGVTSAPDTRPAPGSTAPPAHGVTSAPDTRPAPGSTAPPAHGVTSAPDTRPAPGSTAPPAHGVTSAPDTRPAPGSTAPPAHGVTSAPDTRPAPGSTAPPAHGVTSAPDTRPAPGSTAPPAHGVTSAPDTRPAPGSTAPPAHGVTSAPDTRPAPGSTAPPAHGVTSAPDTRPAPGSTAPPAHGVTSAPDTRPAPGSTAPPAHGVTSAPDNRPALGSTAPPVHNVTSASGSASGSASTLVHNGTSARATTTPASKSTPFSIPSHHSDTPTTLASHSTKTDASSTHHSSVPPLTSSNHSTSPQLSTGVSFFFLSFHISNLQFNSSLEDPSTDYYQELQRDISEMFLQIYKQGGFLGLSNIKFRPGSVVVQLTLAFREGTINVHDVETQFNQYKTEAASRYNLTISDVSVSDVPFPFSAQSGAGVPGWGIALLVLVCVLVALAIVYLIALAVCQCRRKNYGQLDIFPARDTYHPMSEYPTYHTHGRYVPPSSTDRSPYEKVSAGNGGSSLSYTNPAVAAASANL
B1: the binding result is “no binding”.

For B2, the binding result is “no binding”.

Regarding B3, the binding result is given as “no binding”.

A further assay addresses T1, human MUC1 antigen in plate ELISA (KCM …). The experiment in a line: sandwich ELISA: hybridoma antibody coat, KCM lysate 10 µg/mL, test antibody in 5-fold dilutions, HRP goat anti-human IgG, OD450.
In the case of B4, a half-maximal response (EC50) required 0.006 µg/mL.

Regarding B5, the EC50 was found to be 0.032 µg/mL. This EC50 is about 5.3-fold higher than that of the molecule before. Still for that read-out and setting: the result for B6 reads 0.007 µg/mL; that for B7, 0.004 µg/mL. Same read-out and setting: under B8 stands 0.055 µg/mL; under B9, 0.051 µg/mL; under B10, 0.027 µg/mL.

In another assay the target is T2, human MUC1, tumor-associated form (tMUC), on tumor cells and tumor tissue (human, UniProt P15941 24-1255, tumor-associated (aberrant) glycosylation, not specified further).
T2 construct: also called tMUC1; tumor-associated glycosylated MUC1
T2 sequence (P15941 other isoform, or with tags, fused parts or gaps limits assumed): as above
The experiment in a line: flow cytometry of particle uptake, 12 hours at 37 °C; KCM cells (human MUC1) against KCKO cells (MUC1 knockout).
Consider B11, for which the “fold increase in uptake by KCM cells as compared to KCKO cells” value is 8 fold.

Values taken from patent US12605469B2, “Tumor specific antibody conjugates and uses therefor” (The University of North Carolina at Charlotte, priority 2019, dated 2026).
